The values below come from patent publication US20260125472A1 (HEFEI TG IMMUNOPHARMA, published 2026).

Substitutions are numbered along the chain they refer to.

The term Kd denotes the constant that tells how readily two partners part at equilibrium. As a reminder, the koff is a measure of how fast the partners let go of each other. A word on the kon: it is the rate constant with which the complex forms. What is called EC50 (read off the curve) is the concentration at which the effect is half-maximal.

One experiment concerns the target T1, CD3E&D protein (UniProt P04234 22-105).
T1 construct: Purchased from Acro; also called CD3 E&D antigens; CD3E&D antigen protein
Kind of experiment: SPR (Biacore 8K), antibody on CM5 chip, CD3 E&D antigen as analyte. Also on record: Fold change: reference not given here. The procedure: In a Biacore 8K (Cytiva) system, the antibody was diluted to 10 μg/mL in HBS-EP running buffer and coupled to a CM5 chip (Cytiva) at a flow rate of 10 μL/min.
For orientation: Surface plasmon resonance follows binding to a sensor surface in real time, without labels.

A further experiment deals with T2, Trop2 protein (UniProt P09758 27-274).
T2 construct: Bought recombinant protein; also called Trop2-Biotin protein (biotin-labelled, bridging ELISA)
T2 sequence (looked up): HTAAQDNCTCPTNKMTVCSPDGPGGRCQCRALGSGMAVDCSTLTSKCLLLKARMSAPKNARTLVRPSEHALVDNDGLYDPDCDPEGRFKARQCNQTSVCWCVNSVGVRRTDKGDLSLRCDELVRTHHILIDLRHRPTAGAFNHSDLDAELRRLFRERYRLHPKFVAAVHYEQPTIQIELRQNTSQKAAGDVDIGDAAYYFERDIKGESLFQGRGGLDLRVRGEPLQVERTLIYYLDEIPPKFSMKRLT
Kind of experiment: ELISA, coated Trop2 protein, OD450. The text has this:
In this example, the binding properties of the CD3×Trop2 and CD3×PDL1 bispecific antibody (the production method and the amino acid sequences of the heavy and light chains were shown in Example 1) were detected by using ELISA. The CD3E&D, Trop2, or PDL1 protein was coated onto 96-well plates by inventors, and the strength of the signal after the addition of the antibody was used to determine the binding properties of the antibody and the corresponding protein.
(2) Trop2 protein (purchased from Acro) was diluted to 2 μg/ml with PBS buffer, added to a 96-well plate at a volume of 100 μL/well, and placed at 4° C. overnight. The PBS buffer in the 96-well plate was aspirated, and the plate was washed 6 times with PBST (pH 7.2 PBS containing 0.1% Tween 20) buffer. Then, 200 μL/well PBS/10% BSA was added and incubated at 37° C. for 2 h for blocking. The blocking solution was removed, and the plate was washed six times with PBST. Then, the to-be-tested bispecific antibodies, Cross3×Trop2, Cross303×Trop2, Cross307×Trop2, Cross308×Trop2, Cross309×Trop2, Cross310×Trop2, Cross311×Trop2, Cross312×Trop2, Cross313×Trop2, Cross314×Trop2, Cross316×Trop2, Cross317×Trop2, Cross318×Trop2, Cross323×Trop2, Cross325×Trop2, Cross326×Trop2, and control IgG1LALA (purchased from Bio-Tech), serially diluted with PBST/0.05% BSA, were added at 100 μL/well and incubated at 37° C. for 1 h. The reaction system was removed, and the plate was washed 6 times with PBST. Then, HRP (horseradish peroxidase)-labeled anti-human secondary antibody (Fab specific) (purchased from Sigma) diluted with PBST/0.05% BSA at 100 μL/well. After the plate was washed six times with PBST, TMB (tetramethylbenzidine) was added at 80 μL/well, and incubated at room temperature for 3 min. 4 M sulfuric acid was added at 80 μL/well to terminate the reaction. The absorbance was read at 450 nm using a microplate reader.
Background: In an ELISA, binding on a coated surface is turned into a signal by an enzyme label.

The target in experiment [1] is T3, Trop2 on A-375-Trop2 melanoma cells (UniProt P09758 27-323, limits assumed).
T3 construct: whole, on cells
T3 sequence (looked up): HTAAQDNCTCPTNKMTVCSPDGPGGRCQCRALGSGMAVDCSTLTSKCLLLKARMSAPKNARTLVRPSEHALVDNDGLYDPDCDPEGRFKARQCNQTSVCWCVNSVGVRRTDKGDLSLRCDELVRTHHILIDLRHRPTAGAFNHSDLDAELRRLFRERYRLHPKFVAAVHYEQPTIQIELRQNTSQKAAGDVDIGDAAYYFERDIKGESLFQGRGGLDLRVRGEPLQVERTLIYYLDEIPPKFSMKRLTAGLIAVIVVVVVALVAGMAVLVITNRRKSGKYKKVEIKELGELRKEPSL
Kind of experiment: flow cytometry, A-375-Trop2 cells, MFI [panel B]. The protocol:
(2) The tumor cells were diluted to 2×10⁶/ml with PBS and added to a 1.5 ml EP tube at a volume of 100 μl/tube, and goat serum was added thereto at 10 μl/tube. The cells were blocked at 4° C. for 30 min. The serially diluted bispecific antibodies, Cross3×Trop2, Cross303×Trop2, Cross307×Trop2, Cross308×Trop2, Cross309×Trop2, Cross310×Trop2, Cross311×Trop2, Cross312×Trop2, Cross313×Trop2, Cross314×Trop2, Cross316×Trop2, Cross317×Trop2, Cross318×Trop2, Cross323×Trop2, Cross325×Trop2, Cross326×Trop2, and Cross3×PDL1, Cross303×PDL1, Cross307×PDL1, Cross308×PDL1, Cross309×PDL1, Cross310×PDL1, Cross311×PDL1, Cross312×PDL1, Cross313×PDL1, Cross314×PDL1, Cross316×PDL1, Cross317×PDL1, Cross318×PDL1, Cross323×PDL1, Cross325×PDL1, Cross326×PDL1, and control hIgG1LALA (purchased from Bio-Tech) were added and incubated at 4° C. for 30 min. 1 ml of PBS was added to the EP tube, followed by centrifugation at 3500 rpm for 5 min at 4° C. The supernatant was discarded, and the cells were washed again with PBS. After centrifugation, the supernatant was completely discarded, and the cells were resuspended with PBS at 100 μl/tube. Alexa-647-labeled goat anti-human IgG secondary antibody (purchased from Jackson lab) was added at 1 μl/tube and incubated at 4° C. in the dark for 30 min. The cells were washed twice with PBS, and the supernatant was completely discarded after centrifugation. The cells were resuspended with PBS at 200 μl/tube and assay was performed using the flow cytometry.

T1 sequence (chain, as listed by the source limits assumed, chain 1 of 2): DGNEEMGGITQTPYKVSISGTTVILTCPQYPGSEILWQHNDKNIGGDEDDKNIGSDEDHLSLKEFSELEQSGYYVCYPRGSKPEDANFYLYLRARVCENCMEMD
T1 sequence (P04234 22-105 limits assumed, chain 2 of 2): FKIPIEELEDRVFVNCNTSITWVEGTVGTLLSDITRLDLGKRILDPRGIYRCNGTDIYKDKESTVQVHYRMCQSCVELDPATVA

B1: Cross3ZH07 (antibody, human IgG1, kappa, V domains shown)
VH: EVQLLESGGGLVQPGGSLKLSCAASGFTFNTYAMNWVRQAPGKGLEWVARIRSKYNNYATYYADSVKDRFTISRDDSKNTAYLQMNNLKTEDTAVYYCVRHGMFGNSYVSWFAYWGQGTLVTVSS
VL: ELVVTQEPSLTVSPGGTVTLTCRSSTGAVTTSNYANWVQQKPGQAPRGLIGGTNKRAPGTPARFSGSLLGGKAALTLSGVQPEDEAEYYCALWYPNPWVFGGGTKLTVLR
In the experiment with CD3E&D protein, B1 came in with a Fold change of 69.1, a Kd of 11.4 nM, a koff of 0.00138 s⁻¹ and a kon of 121000 M⁻¹ s⁻¹.

B2: Cross3ZH16 (antibody, human IgG1, kappa, V domains shown)
VH: B1 VH with M103N
VL: B1 VL with P97D
B2: in the experiment with CD3E&D protein, the Fold change came to 105, the Kd amounted to 17.3 nM, the koff is 0.0243 s⁻¹ and the kon was 1.41e+06 M⁻¹ s⁻¹.

B3: Cross3ZH09 (antibody, human IgG1, kappa, V domains shown)
VH: B1 VH with M103N, A113L
VL: B1 VL
For the molecule B3, in the experiment with CD3E&D protein, the Fold change was 636, the Kd turned out to be 105 nM, the koff is 0.00296 s⁻¹ and the kon is 28100 M⁻¹ s⁻¹.

B4: Cross3ZH23 (antibody, human IgG1, kappa, V domains shown)
VH: B1 VH with M103N, S107D
VL: B1 VL with P95S
In the case of B4, in the experiment with CD3E&D protein, the Fold change was 4090, the Kd stood at 675 nM, the koff worked out at 0.055 s⁻¹ and the kon was found to be 81500 M⁻¹ s⁻¹.

B5: Cross3×Trop2 (bispecific antibody)
scFv: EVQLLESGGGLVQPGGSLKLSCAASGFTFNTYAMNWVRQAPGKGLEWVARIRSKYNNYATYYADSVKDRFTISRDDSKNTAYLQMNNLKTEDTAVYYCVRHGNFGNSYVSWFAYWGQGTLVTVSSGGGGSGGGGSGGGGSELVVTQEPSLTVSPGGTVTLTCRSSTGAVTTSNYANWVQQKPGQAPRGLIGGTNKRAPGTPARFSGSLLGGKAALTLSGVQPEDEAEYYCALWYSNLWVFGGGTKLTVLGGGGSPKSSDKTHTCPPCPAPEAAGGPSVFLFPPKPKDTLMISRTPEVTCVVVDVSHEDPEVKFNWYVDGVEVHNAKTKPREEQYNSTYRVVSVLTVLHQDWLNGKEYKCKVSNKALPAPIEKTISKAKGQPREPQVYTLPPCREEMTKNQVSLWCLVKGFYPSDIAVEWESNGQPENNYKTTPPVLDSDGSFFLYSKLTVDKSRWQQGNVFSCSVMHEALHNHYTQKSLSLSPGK
heavy: QVQLQQSGSELKKPGASVKVSCKASGYTFTNYGMNWVKQAPGQGLKWMGWINTYTGEPTYTDDFKGRFAFSLDTSVSTAYLQISSLKADDTAVYFCARGGFGSSYWYFDVWGQGSLVTVSSASTKGPSVFPLAPSSKSTSGGTAALGCLVKDYFPEPVTVSWNSGALTSGVHTFPAVLQSSGLYSLSSVVTVPSSSLGTQTYICNVNHKPSNTKVDKKVEPKSSDKTHTCPPCPAPEAAGGPSVFLFPPKPKDTLMISRTPEVTCVVVDVSHEDPEVKFNWYVDGVEVHNAKTKPREEQYNSTYRVVSVLTVLHQDWLNGKEYKCKVSNKALPAPIEKTISKAKGQPREPQVCTLPPSREEMTKNQVSLSCAVKGFYPSDIAVEWESNGQPENNYKTTPPVLDSDGSFFLVSKLTVDKSRWQQGNVFSCSVMHEALHNHYTQKSLSLSPGK
light: DIQLTQSPSSLSASVGDRVSITCKASQDVSIAVAWYQQKPGKAPKLLIYSASYRYTGVPDRFSGSGSGTDFTLTISSLQPEDFAVYYCQQHYITPLTFGAGTKVEIKRTVAAPSVFIFPPSDEQLKSGTASVVCLLNNFYPREAKVQWKVDNALQSGNSQESVTEQDSKDSTYSLSSTLTLSKADYEKHKVYACEVTHQGLSSPVTKSFNRGEC
notes: also called parental Cross3×Trop2 bispecific antibody
For the molecule B5, the “EC50 (read off the curve)” value with Trop2 protein was ~0.008 µg/mL; in experiment [1], ~1 µg/mL.

B6: Cross326×Trop2 (bispecific antibody)
scFv: not shown
heavy: B5 heavy
light: B5 light
Turning to B6, the “EC50 (read off the curve)” value in the experiment with Trop2 protein is ~0.008 µg/mL; in experiment [1], ~1 µg/mL.

B7: Cross318×Trop2 (bispecific antibody)
scFv: not shown
heavy: B5 heavy
light: B5 light
As to B7, the “EC50 (read off the curve)” value is ~0.02 µg/mL in the experiment with Trop2 protein and ~1 µg/mL in experiment [1].

B8: Cross313×Trop2 (bispecific antibody)
scFv: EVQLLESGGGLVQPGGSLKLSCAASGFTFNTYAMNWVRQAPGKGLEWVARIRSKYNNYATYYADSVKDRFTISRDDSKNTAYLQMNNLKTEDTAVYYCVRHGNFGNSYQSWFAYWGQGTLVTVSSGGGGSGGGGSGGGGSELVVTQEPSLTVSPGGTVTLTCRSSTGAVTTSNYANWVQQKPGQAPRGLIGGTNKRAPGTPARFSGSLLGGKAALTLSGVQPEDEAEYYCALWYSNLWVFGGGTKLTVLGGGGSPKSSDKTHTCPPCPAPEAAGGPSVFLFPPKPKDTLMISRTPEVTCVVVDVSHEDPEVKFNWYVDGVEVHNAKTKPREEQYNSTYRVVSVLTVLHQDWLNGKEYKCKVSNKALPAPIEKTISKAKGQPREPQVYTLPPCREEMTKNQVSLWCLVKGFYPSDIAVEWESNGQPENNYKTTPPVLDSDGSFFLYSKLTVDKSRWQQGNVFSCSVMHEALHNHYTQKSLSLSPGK
heavy: B5 heavy
light: B5 light
B8: the “EC50 (read off the curve)” value with Trop2 protein is ~0.008 µg/mL; in experiment [1], ~1 µg/mL.

B9: Cross325×Trop2 (bispecific antibody)
scFv: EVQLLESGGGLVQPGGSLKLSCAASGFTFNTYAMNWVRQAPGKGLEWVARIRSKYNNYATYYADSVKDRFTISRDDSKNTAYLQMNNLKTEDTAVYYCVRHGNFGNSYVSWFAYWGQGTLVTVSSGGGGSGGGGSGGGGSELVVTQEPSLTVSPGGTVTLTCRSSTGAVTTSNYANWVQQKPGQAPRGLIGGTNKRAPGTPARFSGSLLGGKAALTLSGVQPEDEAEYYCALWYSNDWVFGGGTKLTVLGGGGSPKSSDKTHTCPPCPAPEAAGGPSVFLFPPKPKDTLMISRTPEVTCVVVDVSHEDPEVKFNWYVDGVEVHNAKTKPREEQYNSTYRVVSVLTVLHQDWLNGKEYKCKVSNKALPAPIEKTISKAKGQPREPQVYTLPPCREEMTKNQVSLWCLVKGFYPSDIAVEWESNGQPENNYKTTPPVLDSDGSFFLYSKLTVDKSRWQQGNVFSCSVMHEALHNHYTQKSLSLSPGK
heavy: B5 heavy
light: B5 light
For B9, the “EC50 (read off the curve)” value with Trop2 protein is ~0.008 µg/mL; in experiment [1] it was ~1 µg/mL.

B10: Cross308×Trop2 (bispecific antibody)
scFv: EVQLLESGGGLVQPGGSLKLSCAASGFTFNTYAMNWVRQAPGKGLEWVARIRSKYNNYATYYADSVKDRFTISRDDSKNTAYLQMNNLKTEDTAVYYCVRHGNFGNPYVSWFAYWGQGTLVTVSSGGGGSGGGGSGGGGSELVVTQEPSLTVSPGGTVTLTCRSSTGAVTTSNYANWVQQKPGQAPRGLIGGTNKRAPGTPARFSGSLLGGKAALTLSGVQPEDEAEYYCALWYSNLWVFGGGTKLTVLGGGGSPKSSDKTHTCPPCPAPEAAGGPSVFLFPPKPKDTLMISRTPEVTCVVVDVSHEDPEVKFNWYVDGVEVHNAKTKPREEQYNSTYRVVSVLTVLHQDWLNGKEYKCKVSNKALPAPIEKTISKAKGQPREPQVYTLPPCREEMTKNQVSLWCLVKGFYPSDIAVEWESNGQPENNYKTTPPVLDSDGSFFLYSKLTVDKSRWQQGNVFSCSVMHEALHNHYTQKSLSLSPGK
heavy: B5 heavy
light: B5 light
B10: the figures for the “EC50 (read off the curve)” value (in the experiment with Trop2 protein; in experiment [1]) were ~0.008 µg/mL and ~1 µg/mL, respectively.

B11: Cross312×Trop2 (bispecific antibody)
scFv: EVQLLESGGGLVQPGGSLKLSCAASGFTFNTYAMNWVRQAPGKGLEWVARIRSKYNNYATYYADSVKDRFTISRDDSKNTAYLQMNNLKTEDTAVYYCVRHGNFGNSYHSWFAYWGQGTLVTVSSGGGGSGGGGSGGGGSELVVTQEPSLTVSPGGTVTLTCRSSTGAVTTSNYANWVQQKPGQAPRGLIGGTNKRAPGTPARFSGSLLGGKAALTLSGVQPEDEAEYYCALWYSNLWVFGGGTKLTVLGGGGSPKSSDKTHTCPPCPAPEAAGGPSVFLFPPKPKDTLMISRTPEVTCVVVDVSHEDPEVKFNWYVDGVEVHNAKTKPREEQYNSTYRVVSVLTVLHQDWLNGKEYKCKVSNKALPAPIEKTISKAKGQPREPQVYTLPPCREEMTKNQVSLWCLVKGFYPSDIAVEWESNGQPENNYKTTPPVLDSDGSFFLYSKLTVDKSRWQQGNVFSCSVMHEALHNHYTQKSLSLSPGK
heavy: B5 heavy
light: B5 light
Consider B11, for which the “EC50 (read off the curve)” value in the experiment with Trop2 protein was ~0.008 µg/mL; in experiment [1], ~1 µg/mL.

B12: Cross316×Trop2 (bispecific antibody)
scFv: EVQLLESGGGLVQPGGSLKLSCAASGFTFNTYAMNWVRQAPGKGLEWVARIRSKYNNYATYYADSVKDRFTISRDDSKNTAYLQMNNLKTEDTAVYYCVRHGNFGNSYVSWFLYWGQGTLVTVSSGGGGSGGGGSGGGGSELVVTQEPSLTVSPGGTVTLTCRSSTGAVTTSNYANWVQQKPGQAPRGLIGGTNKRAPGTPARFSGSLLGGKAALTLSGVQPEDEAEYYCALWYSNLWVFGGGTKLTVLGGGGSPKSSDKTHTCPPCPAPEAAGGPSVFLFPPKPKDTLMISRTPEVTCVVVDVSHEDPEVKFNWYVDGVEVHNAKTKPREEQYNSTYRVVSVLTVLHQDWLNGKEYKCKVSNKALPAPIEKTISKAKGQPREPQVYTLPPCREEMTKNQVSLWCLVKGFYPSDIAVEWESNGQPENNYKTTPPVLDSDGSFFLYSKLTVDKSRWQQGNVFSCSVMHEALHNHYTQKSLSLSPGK
heavy: B5 heavy
light: B5 light
B12: the “EC50 (read off the curve)” value was ~0.008 µg/mL with Trop2 protein and ~1 µg/mL in experiment [1].

B13: Cross323×Trop2 (bispecific antibody)
scFv: not shown
heavy: B5 heavy
light: B5 light
Consider B13, for which the figures for the “EC50 (read off the curve)” value (with Trop2 protein; in experiment [1]) were ~0.008 µg/mL and ~1 µg/mL, respectively.

B14: Cross309×Trop2 (bispecific antibody)
scFv: not shown
heavy: B5 heavy
light: B5 light
B14: the “EC50 (read off the curve)” value with Trop2 protein is ~0.008 µg/mL; in experiment [1], ~1 µg/mL.

B15: Cross303×Trop2 (bispecific antibody)
scFv: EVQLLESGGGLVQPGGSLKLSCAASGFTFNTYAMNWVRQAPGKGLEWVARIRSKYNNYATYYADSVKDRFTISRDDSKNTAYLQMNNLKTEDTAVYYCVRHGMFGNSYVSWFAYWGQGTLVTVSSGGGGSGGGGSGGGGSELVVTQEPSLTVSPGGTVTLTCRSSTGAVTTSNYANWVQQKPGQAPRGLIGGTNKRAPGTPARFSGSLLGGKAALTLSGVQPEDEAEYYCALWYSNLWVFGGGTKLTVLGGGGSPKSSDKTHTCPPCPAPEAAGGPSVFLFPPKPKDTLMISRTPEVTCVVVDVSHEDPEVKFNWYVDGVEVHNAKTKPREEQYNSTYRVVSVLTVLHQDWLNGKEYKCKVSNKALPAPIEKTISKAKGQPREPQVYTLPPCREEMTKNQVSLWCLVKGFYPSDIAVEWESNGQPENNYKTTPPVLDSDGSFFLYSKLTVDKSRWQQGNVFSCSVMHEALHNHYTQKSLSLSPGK
heavy: B5 heavy
light: B5 light
Regarding B15, the “EC50 (read off the curve)” value was ~0.008 µg/mL in the experiment with Trop2 protein and ~1 µg/mL in experiment [1].

B16: Cross307×Trop2 (bispecific antibody)
scFv: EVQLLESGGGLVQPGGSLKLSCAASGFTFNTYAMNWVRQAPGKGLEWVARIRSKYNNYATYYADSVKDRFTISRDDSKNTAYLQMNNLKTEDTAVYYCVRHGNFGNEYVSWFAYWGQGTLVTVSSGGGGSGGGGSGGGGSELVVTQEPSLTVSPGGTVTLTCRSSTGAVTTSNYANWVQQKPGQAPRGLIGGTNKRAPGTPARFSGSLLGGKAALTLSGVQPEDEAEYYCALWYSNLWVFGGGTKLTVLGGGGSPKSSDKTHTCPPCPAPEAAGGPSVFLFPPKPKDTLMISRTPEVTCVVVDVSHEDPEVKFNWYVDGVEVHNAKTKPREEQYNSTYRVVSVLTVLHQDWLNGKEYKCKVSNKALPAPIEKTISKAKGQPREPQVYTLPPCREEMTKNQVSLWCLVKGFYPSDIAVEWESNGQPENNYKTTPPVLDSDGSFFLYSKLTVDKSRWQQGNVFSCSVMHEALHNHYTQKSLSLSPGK
heavy: B5 heavy
light: B5 light
Consider B16, for which the “EC50 (read off the curve)” value with Trop2 protein is ~0.008 µg/mL; in experiment [1], ~1 µg/mL.

B17: Cross314×Trop2 (bispecific antibody)
scFv: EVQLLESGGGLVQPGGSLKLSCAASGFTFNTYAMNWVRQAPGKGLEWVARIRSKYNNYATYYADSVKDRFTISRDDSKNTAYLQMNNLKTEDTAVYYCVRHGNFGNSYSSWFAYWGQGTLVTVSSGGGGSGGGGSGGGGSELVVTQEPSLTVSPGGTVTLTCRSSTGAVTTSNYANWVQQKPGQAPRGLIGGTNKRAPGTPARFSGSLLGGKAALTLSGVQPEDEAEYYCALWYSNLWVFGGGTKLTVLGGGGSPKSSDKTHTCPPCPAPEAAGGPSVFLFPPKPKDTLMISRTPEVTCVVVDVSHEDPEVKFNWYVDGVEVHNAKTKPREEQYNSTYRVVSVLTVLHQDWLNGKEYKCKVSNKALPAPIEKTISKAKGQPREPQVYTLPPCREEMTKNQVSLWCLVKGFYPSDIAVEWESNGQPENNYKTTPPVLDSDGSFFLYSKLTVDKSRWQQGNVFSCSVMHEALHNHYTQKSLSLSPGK
heavy: B5 heavy
light: B5 light
For B17, the “EC50 (read off the curve)” value is ~0.008 µg/mL with Trop2 protein and ~1 µg/mL in experiment [1].

B18: Cross310×Trop2 (bispecific antibody)
scFv: not shown
heavy: B5 heavy
light: B5 light
Regarding B18, the results for the “EC50 (read off the curve)” value (with Trop2 protein; in experiment [1]) were ~0.008 µg/mL and ~1 µg/mL, respectively.
